Source: US20030114404, “Vascular endothelial growth factor (VEGF) nucleic acid ligand complexes” (Gilead Sciences, Inc., published 2003)

Biological target: T1, VEGF165 (Homo sapiens, UniProt P15692-4 P15692-4:27-191)
Experiment: filter; 37 C
Settings: tags: carrier-free, Sf 21 insect cell expressed, R & D Systems; chain copies: 2 (inferred)
Method: (§1) Nucleic Acid Ligands radiolabeled during transcription by incorporation of α-[³²P]-labeled NTPs, or after synthesis using γ-[³²P]-ATP and T4 polynucleotide kinase, were incubated in low concentration (between 20 and 70 pM) with varying concentrations of VEGF or other growth factors at 37° C. for 15 minutes. Incubations were in TBS, PBS, or HEPES-buffered saline (HBS), pH 7.4, with or without the addition of supplemental divalent cations. Samples were passed through prewashed 0.45 μ Type HA filters (Millipore) followed by a 5-10 ml wash with binding buffer. Filters were immersed in scintillant and counted to quantitate the amount of protein-bound RNA retained by each filter. The equilibrium dissociation constant (KD) of Nucleic Acid Ligand binding to a specific protein was calculated from the data points as described in Green et al. (1996) Biochem. 35: 14413-14424.
The shared primary and secondary structural motifs that define each sequence family hint at the minimal sequence elements required for high affinity binding to VEGF. Nested truncations of a representative ligand from each family (indicated by gray boxes in Table 2) were produced by chemical synthesis and their relative affinities for VEGF were determined (Table 3). Truncated versions of ligands VP30.22, VP30.2 and VT30.44 were prepared by chemical synthesis and their affinities for VEGF were determined as described in Example 3. Initial truncations (t22, t2, t44) were further refined by synthesis of oligonucleotides with additional bases lacking from the 5′ and/or 3′ ends. In order to initiate the chemical synthesis, the 3′-most nucleotide of several of the ligands was modified either by substitution of 2′-OH-cytidine for 2′-F-cytidine (underlined) or by addition of a 3′-3′-linked deoxythymidine “cap” (asterisks). The length of each oligonucleotide (minus the cap) and its high affinity KD for binding to VEGF are shown.

T1 sequence (P15692 other isoform, or with tags, fused parts or gaps): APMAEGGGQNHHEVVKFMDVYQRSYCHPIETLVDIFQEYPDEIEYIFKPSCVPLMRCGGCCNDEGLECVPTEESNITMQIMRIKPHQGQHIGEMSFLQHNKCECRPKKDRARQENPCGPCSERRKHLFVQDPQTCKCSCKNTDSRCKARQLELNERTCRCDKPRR

Binder | Kd
GCGGUAGGAAGAAUUGGAAGCGC (ssRNA, 2'-F pyrimidines except 2'-OH C23) [t22c] | 0.09 nM
GGAAUCAGUGAAUGCUUAUACAUCC (ssRNA, 2'-F pyrimidines except 2'-OH C25) [t44b] | 0.06 nM
ACGAUGCGGUAGGAAGAAUUGGAAGCGC (ssRNA, 2'-F pyrimidines except 2'-OH C28) [t22b] | 0.08 nM
GAACCGAUGGAAUUUUUGGACGCUC (ssRNA, 2'-F pyrimidines, N26 = 3'-3' inverted dT [26 = 3'-3' inverted dT (N replaced by T); 2'-F pyrimidines at 4,5,8,13,14,15,16,17,21,23,24,25]) [t2c] | 0.2 nM
GCGAACCGAUGGAAUUUUUGGACGCUCGC (ssRNA, 2'-F pyrimidines except 2'-OH C29) [t2a] | 0.04 nM
AACCGAUGGAAUUUUUGGACGCU (ssRNA, 2'-F pyrimidines, N24 = 3'-3' inverted dT [24 = 3'-3' inverted dT (N replaced by T); 2'-F pyrimidines at 3,4,7,12,13,14,15,16,20,22,23]) [t2d] | 20 nM
CGGAAUCAGUGAAUGCUUAUACAUCCG (ssRNA, 2'-F pyrimidines) [t44a] | 0.01 nM
GACGAUGCGGUAGGAAGAAUUGGAAGCG (ssRNA, 2'-F pyrimidines) [t22a] | 3 nM
GCGGAAUCAGUGAAUGCUUAUACAUCCGC (ssRNA, 2'-F pyrimidines, N30 = 3'-3' inverted dT [30 = 3'-3' inverted dT (N replaced by T); 2'-F pyrimidines at 2,7,8,11,15,17,18,19,21,23,25,26,27,29]) [t44] | 0.01 nM
CGAACCGAUGGAAUUUUUGGACGCUCG (ssRNA, 2'-F pyrimidines) [t2b] | 0.1 nM
GACGAUGCGGUAGGAAGAAUUGGAAGCGC (ssRNA, 2'-F pyrimidines, N30 = 3'-3' inverted dT [30 = 3'-3' inverted dT; all C/U at 1-29 = 2'-F]) [t22] | 0.07 nM
CGGUAGGAAGAAUUGGAAGCGC (ssRNA, 2'-F pyrimidines except 2'-OH C22) [t22d] | 0.1 nM

Biological target: T1, VEGF165
Experiment: filter; 37 C
Settings: tags: carrier-free, Sf 21 insect cell expressed, R & D Systems; chain copies: 2 (inferred)
Remark: another data set of the same source
Method: as §1

Binder | Kd
VP30.65 (ssRNA, 2'-F pyrimidines) RNA: GGGAGGACGAUGCGGAAAACGCUUUUCUUGGCCCCCUCGUUGCGCCAGACGACUCGCCCGA | 0.033 nM
VP30.23 (ssRNA, 2'-F pyrimidines) RNA: GGGAGGACGAUGCGGGAGCUUGAAGUUUCAGUAUUGGCACAACCUCAGACGACUCGCCCGA | 0.063 nM
VP30.61 (ssRNA, 2'-F pyrimidines) RNA: GGGAGGACGAUGCGGGAGCUUGAAGUUUCAGUACUGGCACAACCUCAGACGACUCGCCCGA | 0.043 nM
VP30.48 (ssRNA, 2'-F pyrimidines) RNA: GGGAGGACGAUGCGGGAGCUUGAAGUUUCGGUAUUGGCACAACCUCAGACGACUCGCCCGA | > 10 nM
VP30.14 (ssRNA, 2'-F pyrimidines) RNA: GGGAGGACGAUGCGGACUGGGAGAAUCCGAAAAACCUUCACGCGUCAGACGACUCGCCCGA | 0.025 nM
VP40.18 (ssRNA, 2'-F pyrimidines) RNA: GGGAGGACGAUGCGGUAGUAAGUUAUUGAAAGCGCAUCUCUAUCAACUCUCGGCCCAGACGACUCGCCCGA | 0.012 nM
VP40.5 (ssRNA, 2'-F pyrimidines) RNA: GGGAGGACGAUGCGGUUGAUCGAGGUUCUAAAGCCUAUUUCCUGACUUUCUCCCCCAGACGACUCGCCCGA | 0.019 nM
VP30.63 (ssRNA, 2'-F pyrimidines) RNA: GGGAGGACGAUGCGGAACCAAUAGAGAUCUUCGGCUGCCCCGCGUCAGACGACUCGCCCGA | 0.016 nM
VP40.3 (ssRNA, 2'-F pyrimidines) RNA: GGGAGGACGAUGCGGCAAAAGUUUGAGUUGAUCUGAUACGUUUCAGUAUUGGCGUCAGACGACUCGCCCGA | 2 nM
VP30.58 (ssRNA, 2'-F pyrimidines) RNA: GGGAGGACGAUGCGGCAACUAUUCGUUGAUGUUUCCGUGAGCCGUCAGACGACUCGCCCGA | 0.006 nM
VP40.25 (ssRNA, 2'-F pyrimidines) RNA: GGGAGGACGAUGCGGAAUGGAAUUUGAGUCGAUCUAGAAUGCGUCGUAUGGGCUCAGACGACUCGCCCGA | 0.74 nM
VP30.6 (ssRNA, 2'-F pyrimidines) RNA: GGGAGGACGAUGCGGAACGGAAUUCUUGGAUACACACCUCGUCCUCAGACGACUCGCCCGA | 0.02 nM
VP30.18 (ssRNA, 2'-F pyrimidines) RNA: GGGAGGACGAUGCGGAUCCAUCAUUUAACCGUUUGCUCUCCCCCUCAGACGACUCGCCCGA | 0.027 nM
VP40.11 (ssRNA, 2'-F pyrimidines) RNA: GGGAGGACGAUGCGGAAGGAAGAUGUUGAUCGUUUGACGUGAUGUGGAUCCGCGUCAGACGACUCGCCCGA | 0.98 nM
VP30.11 (ssRNA, 2'-F pyrimidines) RNA: GGGAGGACGAUGCGGUCAGGAACGGAAUUUUUGGAGACACGCCCUCAGACGACUCGCCCGA | 0.025 nM
VP40.36 (ssRNA, 2'-F pyrimidines) RNA: GGGAGGACGAUGCGGCAGGUUCAGAAUUGGCAGUCGCAUUGAUCUUUUUCACCGCCAGACGACUCGCCCGA | 1.3 nM
VP40.2 (ssRNA, 2'-F pyrimidines) RNA: GGGAGGACGAUGCGGAUCUGUGAACUGGGUUUUUGCCGACGGUUACGCUUUUGCUCAGACGACUCGCCCGA | 0.035 nM
VP30.40 (ssRNA, 2'-F pyrimidines) RNA: GGGAGGACGAUGCGGAAACGGAAGAAUUGGAUACGCAAGCACGUUCAGACGACUCGCCCGA | 0.006 nM
VP30.27 (ssRNA, 2'-F pyrimidines) RNA: GGGAGGACGAUGCGGAAGAAUUGGAUAUAUCGUUCACCCCCACCUCAGACGACUCGCCCGA | 0.4 nM
VP30.67 (ssRNA, 2'-F pyrimidines) RNA: GGGAGGACGAUGCGGUUAACGGAAUUCUUGGAUACAUAGCAUGGUCAGACGACUCGCCCGA | 0.024 nM
VP40.26 (ssRNA, 2'-F pyrimidines) RNA: GGGAGGACGAUGCGGACUCAACUGGACGCUAUGUUGACGGUUAUCGCUUUUGGGUCAGACGACUCGCCCGA | 0.013 nM
VP30.20 (ssRNA, 2'-F pyrimidines) RNA: GGGAGGACGAUGCGGUUGAUCGGACGUUAGUCAUUUCCCGAUCGUCAGACGACUCGCCCGA | 0.057 nM
VP40.24 (ssRNA, 2'-F pyrimidines) RNA: GGGAGGACGAUGCGGGAUGCUGAGUGAGGAAGUCUGAUUGUUGCAGUAUUGGCGUCAGACGACUCGCCCGA | 5 nM
VP30.35 (ssRNA, 2'-F pyrimidines) RNA: GGGAGGACGAUGCGGUGAAUGAGCUGACGACCCUGAAUUGCUCGUCAGACGACUCGCCCGA | 0.006 nM
